In patent US20210388087A1 (Chugai, published 2021):
Positions count from the first letter of the chain named. Names may count otherwise.

B1: CE115HA000 N53Q one-arm antibody (antibody, human IgG1, kappa, L234A L235A, N297A, name in Kabat numbering)
heavy: QVQLVESGGGVVQPGRSLRLSCAASGFTFSNAWMHWVRQAPGKGLEWVAQIKAKSQNYATYYAESVKGRFTISRDDSKNSLYLQMNSLKTEDTAVYYCRYVHYGAYYGVDAWGQGTTVTVSSASTKGPSVFPLAPSSKSTSGGTAALGCLVKDYFPEPVTVSWNSGALTSGVHTFPAVLQSSGLYSLSSVVTVPSSSLGTQTYICNVNHKPSNTKVDKKVEPKSCDKTHTCPPCPAPEAAGGPSVFLFPPKPKDTLMISRTPEVTCVVVDVSHEDPEVKFNWYVDGVEVHNAKTKPREEQYASTYRVVSVLTVLHQDWLNGKEYKCKVSNKALPAPIEKTISKAKGQPREPQVYTLPPSRCELTKNQVSLSCAVKGFYPSDIAVEWESNGQPENNYKTTPPVLDSDGSFFLVSKLTVDKSRWQQGNVFSCSVMHEALHNHYTQKSLSLSPDYKDDDDK
chain: EPKSSDKTHTCPPCPAPELLGGPSVFLFPPKPKDTLMISRTPEVTCVVVDVSHEDPEVKFNWYVDGVEVHNAKTKPREEQYNSTYRVVSVLTVLHQDWLNGKEYKCKVSNKALPAPIEKTISKAKGQPREPQVCTLPPSRDELTKNQVSLWCLVKGFYPSDIAVEWESNGQPENNYKTTPPVLDSDGSFFLYSKLTVDKSRWQQGNVFSCSVMHEALHNRYTQKSLSLSP
light: DIVMTQSPLSLPVTPGEPASISCRSSQSLVHSNRNTYLHWYQQKPGQAPRLLIYKVSNRFSGVPDRFSGSGSGTDFTLKISRVEAEDVGVYYCGQGTQVPYTFGQGTKLEIKRTVAAPSVFIFPPSDEQLKSGTASVVCLLNNFYPREAKVQWKVDNALQSGNSQESVTEQDSKDSTYSLSSTLTLSKADYEKHKVYACEVTHQGLSSPVTKSFNRGEC
B2: CE115HA000 N54F one-arm antibody (antibody, human IgG1, kappa, L234A L235A, N297A, name in Kabat numbering)
heavy: B1 heavy with Q56N, N57F
chain: B1 chain
light: B1 light
B3: CE115HA000 Q50S one-arm antibody (antibody, human IgG1, kappa, L234A L235A, N297A, name in Kabat numbering)
heavy: B1 heavy with Q50S, Q56N
chain: B1 chain
light: B1 light
B4: CE115HA000 R16Q one-arm antibody (antibody, human IgG1, kappa, L234A L235A, N297A, name in Kabat numbering)
heavy: B1 heavy with R16Q, Q56N
chain: B1 chain
light: B1 light
B5: CE115HA000 N53Y one-arm antibody (antibody, human IgG1, kappa, L234A L235A, N297A, name in Kabat numbering)
heavy: B1 heavy with Q56Y
chain: B1 chain
light: B1 light
B6: CE115HA000 Q50I one-arm antibody (antibody, human IgG1, kappa, L234A L235A, N297A, name in Kabat numbering)
heavy: B1 heavy with Q50I, Q56N
chain: B1 chain
light: B1 light
B7: CE115HA000 S52cF one-arm antibody (antibody, human IgG1, kappa, L234A L235A, N297A, name in Kabat numbering)
heavy: B1 heavy with S55F, Q56N
chain: B1 chain
light: B1 light
B8: CE115HA000 Q50D one-arm antibody (antibody, human IgG1, kappa, L234A L235A, N297A, name in Kabat numbering)
heavy: B1 heavy with Q50D, Q56N
chain: B1 chain
light: B1 light
B9: CE115HA000 S52cA one-arm antibody (antibody, human IgG1, kappa, L234A L235A, N297A, name in Kabat numbering)
heavy: B1 heavy with S55A, Q56N
chain: B1 chain
light: B1 light
B10: CE115HA000 S30D one-arm antibody (antibody, human IgG1, kappa, L234A L235A, N297A, name in Kabat numbering)
heavy: B1 heavy with S30D, Q56N
chain: B1 chain
light: B1 light
B11: CE115HA000 R16E one-arm antibody (antibody, human IgG1, kappa, L234A L235A, N297A, name in Kabat numbering)
heavy: B1 heavy with R16E, Q56N
chain: B1 chain
light: B1 light
B12: CE115HA000 N54K one-arm antibody (antibody, human IgG1, kappa, L234A L235A, N297A, name in Kabat numbering)
heavy: B1 heavy with Q56N, N57K
chain: B1 chain
light: B1 light
B13: CE115HA000 N54A one-arm antibody (antibody, human IgG1, kappa, L234A L235A, N297A, name in Kabat numbering)
heavy: B1 heavy with Q56N, N57A
chain: B1 chain
light: B1 light
B14: CE115HA000 N82aD one-arm antibody (antibody, human IgG1, kappa, L234A L235A, N297A, name in Kabat numbering)
heavy: B1 heavy with Q56N, N86D
chain: B1 chain
light: B1 light
B15: CE115HA000 N76S one-arm antibody (antibody, human IgG1, kappa, L234A L235A, N297A, name in Kabat numbering)
heavy: B1 heavy with Q56N, N79S
chain: B1 chain
light: B1 light
B16: CE115HA000 N54L one-arm antibody (antibody, human IgG1, kappa, L234A L235A, N297A, name in Kabat numbering)
heavy: B1 heavy with Q56N, N57L
chain: B1 chain
light: B1 light
B17: CE115HA000 N53W one-arm antibody (antibody, human IgG1, kappa, L234A L235A, N297A, name in Kabat numbering)
heavy: B1 heavy with Q56W
chain: B1 chain
light: B1 light
B18: CE115HA000 N54Y one-arm antibody (antibody, human IgG1, kappa, L234A L235A, N297A, name in Kabat numbering)
heavy: B1 heavy with Q56N, N57Y
chain: B1 chain
light: B1 light
B19: CE115HA000 N53S one-arm antibody (antibody, human IgG1, kappa, L234A L235A, N297A, name in Kabat numbering)
heavy: B1 heavy with Q56S
chain: B1 chain
light: B1 light
B20: CE115HA000 N54S one-arm antibody (antibody, human IgG1, kappa, L234A L235A, N297A, name in Kabat numbering)
heavy: B1 heavy with Q56N, N57S
chain: B1 chain
light: B1 light
B21: CE115HA000 Q50K one-arm antibody (antibody, human IgG1, kappa, L234A L235A, N297A, name in Kabat numbering)
heavy: B1 heavy with Q50K, Q56N
chain: B1 chain
light: B1 light
B22: CE115HA000 Q50L one-arm antibody (antibody, human IgG1, kappa, L234A L235A, N297A, name in Kabat numbering)
heavy: B1 heavy with Q50L, Q56N
chain: B1 chain
light: B1 light
B23: CE115HA000 Q105E one-arm antibody (antibody, human IgG1, kappa, L234A L235A, N297A, name in Kabat numbering)
heavy: B1 heavy with Q56N, Q114E
chain: B1 chain
light: B1 light
B24: CE115HA000 S52cG one-arm antibody (antibody, human IgG1, kappa, L234A L235A, N297A, name in Kabat numbering)
heavy: B1 heavy with S55G, Q56N
chain: B1 chain
light: B1 light
B25: CE115HA000 N54D one-arm antibody (antibody, human IgG1, kappa, L234A L235A, N297A, name in Kabat numbering)
heavy: B1 heavy with Q56N, N57D
chain: B1 chain
light: B1 light
B26: CE115HA000 N54Q one-arm antibody (antibody, human IgG1, kappa, L234A L235A, N297A, name in Kabat numbering)
heavy: B1 heavy with Q56N, N57Q
chain: B1 chain
light: B1 light
B27: CE115HA000 Q50A one-arm antibody (antibody, human IgG1, kappa, L234A L235A, N297A, name in Kabat numbering)
heavy: B1 heavy with Q50A, Q56N
chain: B1 chain
light: B1 light
B28: CE115HA000 Q50Y one-arm antibody (antibody, human IgG1, kappa, L234A L235A, N297A, name in Kabat numbering)
heavy: B1 heavy with Q50Y, Q56N
chain: B1 chain
light: B1 light
B29: CE115HA000 S30G one-arm antibody (antibody, human IgG1, kappa, L234A L235A, N297A, name in Kabat numbering)
heavy: B1 heavy with S30G, Q56N
chain: B1 chain
light: B1 light
B30: CE115HA000 R19T one-arm antibody (antibody, human IgG1, kappa, L234A L235A, N297A, name in Kabat numbering)
heavy: B1 heavy with R19T, Q56N
chain: B1 chain
light: B1 light
B31: CE115HA000 Q50E one-arm antibody (antibody, human IgG1, kappa, L234A L235A, N297A, name in Kabat numbering)
heavy: B1 heavy with Q50E, Q56N
chain: B1 chain
light: B1 light
B32: CE115HA000 N54G one-arm antibody (antibody, human IgG1, kappa, L234A L235A, N297A, name in Kabat numbering)
heavy: B1 heavy with Q56N, N57G
chain: B1 chain
light: B1 light
B33: CE115HA000 S52cD one-arm antibody (antibody, human IgG1, kappa, L234A L235A, N297A, name in Kabat numbering)
heavy: B1 heavy with S55D, Q56N
chain: B1 chain
light: B1 light

Target: T1, CD3 epsilon homodimer protein (UniProt P07766 23-126)
T1 construct: immobilized on Sensor chip CM4 by amine coupling; also called CD3 (CD3 epsilon)
Assay: SPR (Biacore T200), CD3 epsilon homodimer on CM4 chip, one-arm antibody as analyte, 25 C;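 further: homodimer attached to the sensor surface via amine coupling, HBS-EP+ used as running buffer during binding runs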

T1 sequence (P07766 23-126): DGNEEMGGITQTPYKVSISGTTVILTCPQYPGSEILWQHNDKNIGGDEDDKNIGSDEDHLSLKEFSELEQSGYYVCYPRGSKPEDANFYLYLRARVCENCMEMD

| ratio of amounts bound (altered form / CE115HA000) | Binder |
| --- | --- |
| 1.1 | B1 |
| 1.12 | B2 |
| 0.24 | B3 |
| 0.9 | B4 |
| 0.63 | B5 |
| 0.4 | B6 |
| 1.13 | B7 |
| 0.27 | B8 |
| 0.96 | B9 |
| 0.86 | B10 |
| 0.88 | B11 |
| 1.2 | B12 |
| 0.85 | B13 |
| 0.73 | B14 |
| 0.92 | B15 |
| 0.94 | B16 |
| 0.88 | B17 |

| ratio of amounts bound (altered form / CE115HA000) | Binder |
| --- | --- |
| 1.09 | B18 |
| 0.83 | B19 |
| 0.84 | B20 |
| 0.33 | B21 |
| 0.23 | B22 |
| 0.94 | B23 |
| 0.97 | B24 |
| 0.62 | B25 |
| 0.84 | B26 |
| 0.24 | B27 |
| 0.25 | B28 |
| 1.01 | B29 |
| 0.8 | B30 |
| 0.26 | B31 |
| 0.98 | B32 |
| 0.6 | B33 |
